From PMC12109740, “Modulation of Kv Channel Gating by Light-Controlled Membrane Thickness” (Biomolecules, 2025)

Biological target: the molecule itself
Assay: SEC; Superdex 200 Increase 10/300 GL, 100 mM KCl, 25 mM Tris pH 8.0, in detergent (DM by the methods, DDM by the results); peak at 11 mL

B1: KvAP wild type (voltage-gated potassium channel from Aeropyrum pernix) (natural protein)
chain: GGRVRNIGDVMEHPLVELGVSYAALLSVIVVVVEYTMQLSGEYLVRLYLVDLILVIILWADYAYRAYKSGDPAGYVKKTLYEIPALVPAGLLALIEGHLAGLGLFRLVRLLRFLRILLIISRGSKFLSAIADAADKIRFYHLFGAVMLTVLYGAFAIYIVEYPDPNSSIKSVFDALWWAVVTATTVGYGDVVPATPIGKVIGIAVMLTGISALTLLIGTVSNMFQKILVGEPEPSCSPAKLAEMVSSMSEEEFEEFVRTLKNLRRLENSMK
notes: KvAP, voltage-gated potassium channel of Aeropyrum pernix, wild type; also called Kv channel from Aeropyrum pernix; source: E. coli C43 (DE3), pET21a-derived vector, solubilised in detergent, purified (Ni-NTA, SEC on Superdex 200 Increase)
stoichiometry N: 4
